In US11504441B2, “Radiolabeled compounds targeting the prostate-specific membrane antigen” (PROVINCIAL HEALTH SERVICES AUTHORITY, priority 2019, dated 2022):

Assays:
[1] = in vivo; details: male, NODSCID 1L2RγKO, mouse, iv, total radioactivity; for excreta dose per gram or mL at 1 h: Urine uptake
Procedure: (§1) LNCaP cell line was obtained from ATCC (LNCaP clone FGC, CRL-1740). […] Cells were cultured in PRM I 1640 medium supplemented with 10% FBS, penicillin (100 U/mL) and streptomycin (100 μg/mL) at 37° C. in a humidified incubator containing 5% CO2. Cells grown to 80-90% confluence were then washed with sterile phosphate-buffered saline (1× PBS pH 7.4) and collected by trypsinization. The collected cells concentration was counted with a Hausser Scientific (Horsham, Pa.) Hemacytometer.
(§2) Imaging and biodistribution experiments were performed using NODSCID 1 L2RγKO male mice. Mice were anesthetized by inhalation with 2% isoflurane in oxygen, and implanted subcutaneously with 1×10^7 LNCaP cells behind left shoulder. Mice were imaged or used in biodistribution studies when the tumor grew up to reach 5-8 mm in diameter during 5-6 weeks.
(§3) PET imaging experiments were conducted using Siemens Inveon micro PET/CT scanner. Each tumor bearing mouse was injected 6-8 MBq of Ga-68 labeled tracer through the tail vein under anesthesia (2% isoflurane in oxygen). The mice were allowed to recover and roam freely in their cage. After 50 min, the mice were sedated again with 2% isoflurane in oxygen inhalation and positioned in the scanner. A 10-min CT scan was conducted first for localization and attenuation correction after segmentation for reconstructing the PET images. Then, a 10-min static PET imaging was performed to determined uptake in tumor and other organs. The mice were kept warm by a heating pad during acquisition. For biodistribution studies, the mice were injected with the radiotracer as described above. The mice was anesthetized with 2% isoflurane inhalation, and euthanized by CO2 inhalation. Blood was withdrawn immediately from the heart, and the organs/tissues of interest were collected. The collected organs/tissues were weighed and counted using a Perkin Elmer (Waltham, Mass.) Wizard2 2480 gamma counter. The uptake in each organ/tissue was normalized to the injected dose using a standard curve, and expressed as the percentage of the injected dose per gram of tissue (% ID/g).
(§4) LNCaP cell line was obtained from ATCC (LNCaP clone FGC, CRL-1740). […] Cells were cultured in PRM I 1640 medium supplemented with 10% FBS, penicillin (100 U/mL) and streptomycin (100 μg/mL) at 37° C. in a humidified incubator containing 5% CO2. Cells grown to 80-90% confluence were then washed with sterile phosphate-buffered saline (1× PBS pH 7.4), and collected by trypsinization. The collected cell concentration was counted with a Hausser Scientific (Horsham, Pa.) Hemacytometer.
(§5) Imaging and biodistribution experiments were performed using NODSCID 1L2RγKO male mice. Mice were anesthetized by inhalation with 2% isoflurane in oxygen, and implanted subcutaneously with 1×10^7 LNCaP cells behind left shoulder. Mice were imaged or used in biodistribution studies when the tumor grew up to reach 5-8 mm in diameter during 5-6 weeks.
(§6) PET imaging experiments were conducted using Siemens Inveon micro PET/CT scanner. Each tumor bearing mouse was injected 6-8 MBq of Ga-68 or F-18 labeled tracer through the tail vein under anesthesia (2% isoflurane in oxygen). The mice were allowed to recover and roam freely in their cage. After 50 min, the mice were sedated again with 2% isoflurane in oxygen inhalation and positioned in the scanner. A 10-min CT scan was conducted first for localization and attenuation correction after segmentation for reconstructing the PET images. Then, a 10-min static PET imaging was performed to determined uptake in tumor and other organs.
(§7) For biodistribution studies, the mice were injected with the radiotracer as described above.

[2] = tested on: PSMA-expressing LNCaP cancer xenografts; details: mouse, in vivo
Procedure: as §1, §2, §3, §4, §5, §6, §7

O=C(O)C[C@H](NC(=O)N[C@@H](CCCCNC(=O)[C@H](Cc1c2ccccc2cc2ccccc12)NC(=O)[C@H]1CC[C@H](CNC(=O)CN2CCN(CC(=O)O)CCN(CC(=O)O)CCN(CC(=O)O)CC2)CC1)C(=O)O)C(=O)O [68Ga-HTK03161, metal not drawn]
tissue uptake at 1 h ([1]; Adrenal glands uptake): 0.41 ± 0.07 %ID/g | tissue uptake at 1 h ([1]; Blood uptake): 1.13 ± 0.19 %ID/g | tissue uptake at 1 h ([1]; Bone uptake): 0.11 ± 0.02 %ID/g | tissue uptake at 1 h ([1]; Brain uptake): 0.02 %ID/g | tissue uptake at 1 h ([1]; Fat uptake): 0.15 ± 0.04 %ID/g | tissue uptake at 1 h ([1]; Heart uptake): 0.32 ± 0.05 %ID/g | tissue uptake at 1 h ([1]; Intestine uptake): 0.31 ± 0.09 %ID/g | tissue uptake at 1 h ([1]; Kidneys uptake): 4.41 ± 1.26 %ID/g | tissue uptake at 1 h ([1]; Lacrimal uptake): 0.12 ± 0.06 %ID/g | tissue uptake at 1 h ([1]; Liver uptake): 0.28 ± 0.05 %ID/g | tissue uptake at 1 h ([1]; Lungs uptake): 0.75 ± 0.13 %ID/g | tissue uptake at 1 h ([1]; Muscle uptake): 0.15 ± 0.04 %ID/g | tissue uptake at 1 h ([1]; Pancreas uptake): 0.18 ± 0.03 %ID/g | tissue uptake at 1 h ([1]; Salivary uptake): 0.23 ± 0.05 %ID/g | tissue uptake at 1 h ([1]; Seminal uptake): 6.22 ± 12.2 %ID/g | tissue uptake at 1 h ([1]; Spleen uptake): 0.27 ± 0.06 %ID/g | tissue uptake at 1 h ([1]; Stomach uptake): 0.1 ± 0.04 %ID/g | tissue uptake at 1 h ([1]; Tail uptake): 0.55 ± 0.1 %ID/g | tissue uptake at 1 h ([1]; Testes uptake): 0.54 ± 0.51 %ID/g | tissue uptake at 1 h ([1]; Thyroid uptake): 0.29 ± 0.05 %ID/g | tissue uptake at 1 h ([1]; Tumor uptake): 12.7 ± 1.91 %ID/g | excreta dose per gram or mL at 1 h [1]: 363 ± 155 %ID/g | Blood: Salivary ratio [2]: 5.08 ± 0.62 | Tumor: Blood ratio [2]: 11.4 ± 1.73 | Tumor: Kidney ratio [2]: 3.03 ± 0.84 | Tumor: Muscle ratio [2]: 89.4 ± 36.1 | Tumor: Salivary ratio [2]: 57.2 ± 7.11

O=C(O)CCC[C@H](NC(=O)N[C@@H](CCCCNC(=O)[C@H](Cc1c2ccccc2cc2ccccc12)NC(=O)Cc1ccc(CNC(=O)CN2CCN(CC(=O)O)CCN(CC(=O)O)CCN(CC(=O)O)CC2)cc1)C(=O)O)C(=O)O [68Ga-HTK04036, metal not drawn]
tissue uptake at 1 h ([1]; Adrenal glands uptake): 0.3 ± 0.16 %ID/g | tissue uptake at 1 h ([1]; Blood uptake): 0.69 ± 0.35 %ID/g | tissue uptake at 1 h ([1]; Bone uptake): 0.1 ± 0.03 %ID/g | tissue uptake at 1 h ([1]; Brain uptake): 0.02 ± 0.01 %ID/g | tissue uptake at 1 h ([1]; Fat uptake): 0.09 ± 0.05 %ID/g | tissue uptake at 1 h ([1]; Heart uptake): 0.22 ± 0.12 %ID/g | tissue uptake at 1 h ([1]; Intestine uptake): 0.41 ± 0.23 %ID/g | tissue uptake at 1 h ([1]; Kidneys uptake): 5.82 ± 5 %ID/g | tissue uptake at 1 h ([1]; Lacrimal uptake): 0.06 ± 0.03 %ID/g | tissue uptake at 1 h ([1]; Liver uptake): 0.48 ± 0.67 %ID/g | tissue uptake at 1 h ([1]; Lungs uptake): 0.55 ± 0.26 %ID/g | tissue uptake at 1 h ([1]; Muscle uptake): 0.11 ± 0.06 %ID/g | tissue uptake at 1 h ([1]; Pancreas uptake): 0.13 ± 0.07 %ID/g | tissue uptake at 1 h ([1]; Salivary uptake): 0.18 ± 0.08 %ID/g | tissue uptake at 1 h ([1]; Seminal uptake): 2.08 ± 3.09 %ID/g | tissue uptake at 1 h ([1]; Spleen uptake): 0.27 ± 0.13 %ID/g | tissue uptake at 1 h ([1]; Stomach uptake): 0.12 ± 0.11 %ID/g | tissue uptake at 1 h ([1]; Tail uptake): 0.42 ± 0.18 %ID/g | tissue uptake at 1 h ([1]; Testes uptake): 0.25 ± 0.14 %ID/g | tissue uptake at 1 h ([1]; Thyroid uptake): 0.22 ± 0.12 %ID/g | tissue uptake at 1 h ([1]; Tumor uptake): 12.1 ± 2.15 %ID/g | excreta dose per gram or mL at 1 h [1]: 422 ± 163 %ID/g | Blood: Salivary ratio [2]: 3.68 ± 0.41 | Tumor: Blood ratio [2]: 21.0 ± 8.58 | Tumor: Kidney ratio [2]: 3.02 ± 1.44 | Tumor: Muscle ratio [2]: 139 ± 62.4 | Tumor: Salivary ratio [2]: 75.1 ± 28.2

O=C(O)CCC[C@H](NC(=O)N[C@@H](CCCCNC(=O)[C@H](Cc1c2ccccc2cc2ccccc12)NC(=O)c1ccc(NC(=O)CN2CCN(CC(=O)O)CCN(CC(=O)O)CCN(CC(=O)O)CC2)cc1)C(=O)O)C(=O)O [68Ga-HTK04041, metal not drawn]
tissue uptake at 1 h ([1]; Adrenal glands uptake): 0.31 ± 0.05 %ID/g | tissue uptake at 1 h ([1]; Blood uptake): 1 ± 0.09 %ID/g | tissue uptake at 1 h ([1]; Bone uptake): 0.13 ± 0.02 %ID/g | tissue uptake at 1 h ([1]; Brain uptake): 0.02 %ID/g | tissue uptake at 1 h ([1]; Fat uptake): 0.11 ± 0.03 %ID/g | tissue uptake at 1 h ([1]; Heart uptake): 0.3 ± 0.03 %ID/g | tissue uptake at 1 h ([1]; Intestine uptake): 0.19 ± 0.04 %ID/g | tissue uptake at 1 h ([1]; Kidneys uptake): 6.82 ± 2.93 %ID/g | tissue uptake at 1 h ([1]; Lacrimal uptake): 0.11 ± 0.05 %ID/g | tissue uptake at 1 h ([1]; Liver uptake): 0.37 ± 0.08 %ID/g | tissue uptake at 1 h ([1]; Lungs uptake): 0.82 ± 0.08 %ID/g | tissue uptake at 1 h ([1]; Muscle uptake): 0.13 ± 0.03 %ID/g | tissue uptake at 1 h ([1]; Pancreas uptake): 0.15 ± 0.02 %ID/g | tissue uptake at 1 h ([1]; Salivary uptake): 0.26 ± 0.04 %ID/g | tissue uptake at 1 h ([1]; Seminal uptake): 1.68 ± 3.44 %ID/g | tissue uptake at 1 h ([1]; Spleen uptake): 0.4 ± 0.11 %ID/g | tissue uptake at 1 h ([1]; Stomach uptake): 0.07 ± 0.03 %ID/g | tissue uptake at 1 h ([1]; Tail uptake): 0.57 ± 0.05 %ID/g | tissue uptake at 1 h ([1]; Testes uptake): 0.31 ± 0.05 %ID/g | tissue uptake at 1 h ([1]; Thyroid uptake): 0.29 ± 0.04 %ID/g | tissue uptake at 1 h ([1]; Tumor uptake): 12.2 ± 3.15 %ID/g | excreta dose per gram or mL at 1 h [1]: 396 ± 92.3 %ID/g | Blood: Salivary ratio [2]: 3.96 ± 0.51 | Tumor: Blood ratio [2]: 12.4 ± 3.62 | Tumor: Kidney ratio [2]: 2.06 ± 0.89 | Tumor: Muscle ratio [2]: 95.1 ± 33.7 | Tumor: Salivary ratio [2]: 48.2 ± 12.2

O=C(O)CCCCC(NC(=O)N[C@@H](CCCCNC(=O)[C@H](Cc1c2ccccc2cc2ccccc12)NC(=O)[C@H]1CC[C@H](CNC(=O)CN2CCN(CC(=O)O)CCN(CC(=O)O)CCN(CC(=O)O)CC2)CC1)C(=O)O)C(=O)O (single isomer, unassigned) [68Ga-HTK03189B, metal not drawn]
Adrenal glands uptake ([2]; male, NODSCID 1L2RγKO, iv, 1 h): 0.37 ± 0.15 % ID/g | Blood uptake ([2]; male, NODSCID 1L2RγKO, iv, 1 h): 1.06 ± 0.25 % ID/g | Bone uptake ([2]; male, NODSCID 1L2RγKO, iv, 1 h): 0.10 ± 0.02 % ID/g | Brain uptake ([2]; male, NODSCID 1L2RγKO, iv, 1 h): 0.03 ± 0.00 % ID/g | Fat uptake ([2]; male, NODSCID 1L2RγKO, iv, 1 h): 0.17 ± 0.10 % ID/g | Heart uptake ([2]; male, NODSCID 1L2RγKO, iv, 1 h): 0.30 ± 0.06 % ID/g | Intestine uptake ([2]; male, NODSCID 1L2RγKO, iv, 1 h): 0.28 ± 0.07 % ID/g | Kidneys uptake ([2]; male, NODSCID 1L2RγKO, iv, 1 h): 2.13 ± 0.45 % ID/g | Lacrimal uptake ([2]; male, NODSCID 1L2RγKO, iv, 1 h): 0.13 ± 0.04 % ID/g | Liver uptake ([2]; male, NODSCID 1L2RγKO, iv, 1 h): 0.39 ± 0.08 % ID/g | Lungs uptake ([2]; male, NODSCID 1L2RγKO, iv, 1 h): 0.82 ± 0.22 % ID/g | Muscle uptake ([2]; male, NODSCID 1L2RγKO, iv, 1 h): 0.12 ± 0.03 % ID/g | Pancreas uptake ([2]; male, NODSCID 1L2RγKO, iv, 1 h): 0.18 ± 0.05 % ID/g | Salivary uptake ([2]; male, NODSCID 1L2RγKO, iv, 1 h): 0.22 ± 0.04 % ID/g | Seminal uptake ([2]; male, NODSCID 1L2RγKO, iv, 1 h): 2.62 ± 4.74 % ID/g | Spleen uptake ([2]; male, NODSCID 1L2RγKO, iv, 1 h): 0.20 ± 0.05 % ID/g | Stomach uptake ([2]; male, NODSCID 1L2RγKO, iv, 1 h): 0.11 ± 0.03 % ID/g | Tail uptake ([2]; male, NODSCID 1L2RγKO, iv, 1 h): 0.90 ± 0.29 % ID/g | Testes uptake ([2]; male, NODSCID 1L2RγKO, iv, 1 h): 0.26 ± 0.05 % ID/g | Thyroid uptake ([2]; male, NODSCID 1L2RγKO, iv, 1 h): 0.29 ± 0.08 % ID/g | Tumor uptake ([2]; male, NODSCID 1L2RγKO, iv, 1 h): 0.67 ± 0.15 % ID/g | Urine uptake ([2]; male, NODSCID 1L2RγKO, iv, 1 h): 441 ± 138 % ID/g | Blood: Salivary ratio [2]: 4.86 ± 1.16 | Tumor: Blood ratio [2]: 0.65 ± 0.15 | Tumor: Kidney ratio [2]: 0.32 ± 0.05 | Tumor: Muscle ratio [2]: 5.68 ± 1.12 | Tumor: Salivary ratio [2]: 3.08 ± 0.53
